The target of the experiment is HA1.7 TCR-β chain (human). The experiment in a line: co-IP.

By stoichiometry N is commonly meant a count of units in the complex or per binding partner. In the case of HA1.7 TCR-α chain, the stoichiometry N is 1.

For the origin of these results see article PMC2198996.
